Data on 8 molecules can be found in patent US6440696 (NEW ENGLAND MEDICAL CENTER, dated 2002).

B1: human lamin/GAL4 DNA binding domain fusion protein (pLam 5') (other)
chain: MKLLSSIEQACDICRLKKLKCSKEKPKCAKCLKNNWECRYSPKTKRSPLTRAHLTEVESRLERLEQLFLLIFPREDLDMILKMDSLQDIKALLTGLFVQDNVNKDAVTDRLASVETDMPLTLRQHRISATSSSEESSNKGQRQLTVSSEEVVSREVSGIKAAYEAELGDARKTLDSVAKERARLQLELSKVREEFKELKARNTKKEGDLIAAQARLKDLEALLNSKEAALSTALSEKRTLEGELHDLRGQVAKLEAALGEAKKQLQDEMLRRVDAENRLQTMKEELDFQKNIYSEELRETKRRHETRLVEID
notes: Control bait from Clontech; also called human lamin fused to Gal4 in pGBT9
B2: pGAD10 two-hybrid clone encoding the 378 carboxyl terminal amino acid residues of E6TP1 (other)
chain: SSRHSASPVVFTSARSSPKEELHPAAPSQLAPSFSSSSSSSSGPRSFYPRQGATSKYLIGWKKPEGTINSVGFMDTRKRHQSDGNEIAHTRLRASTRDLRASPKPTSKSTIEEDLKKLIDLESPTPESQKSFKFHALSSPQSPFPSTPTSRRALHRTLSDESIYNSQREHFFTSRASLLDQALPNDVLFSSTYPSLPKSLPLRRPSYTLGMKSLHGEFSASDSSLTDIQETRRQPMPDPGLMPLPDTAADLDWSNLVDAAKAYEVQRASFFAASDENHRPLSAASNSDQLEDQALAQMKPYSSSKDSSPTLASKVDQLEGMLKMLREDLKKEKEDKAHLQAEVQHLREDNLRLQEESQNASDKLKKFTEWVFNTIDMS
notes: also called one distinct strongly positive clone; longer yeast two-hybrid cDNA clone
B6: murine p53/GAL4 DNA binding domain fusion protein (pVA3) (other)
chain: MKLLSSIEQACDICRLKKLKCSKEKPKCAKCLKNNWECRYSPKTKRSPLTRAHLTEVESRLERLEQLFLLIFPREDLDMILKMDSLQDIKALLTGLFVQDNVNKDAVTDRLASVETDMPLTLRQHRISATSSSEESSNKGQRQLTVSPVTETPGPVAPAPATPWPLSSFVPSQKTYQGNYGFHLGFLQSGTAKSVMCTYSPPLNKLFCQLAKTCPVQLWVSATPPAGSRVRAMAIYKKSQHMTEVVRRCPHHERCSDGDGLAPPQHLIRVEGNLYPEYLEDRQTFRHSVVVPYEPPEAGSEYTTIHYKYMCNSSCMGGMNRRPILTIITLEDSSGNLLGRDSFEVRVCACPGRDRRTEEENFRKKEVLCPELPPGSAKRALPTCTSASPPQKKKPLDGEYFTLKIRGRKRFEMFRELNEALELKDAHATEESGDSRAHSSYLKTKKGQSTSRHKKTMVKKVGPDSD
notes: Control bait from Clontech; also called murine p53 fused to Gal4 in pGBT9
B8: pGBT9-E6 bait (GAL4 fused to HPV16 E6 residues 2-158) (other)
chain: MKLLSSIEQACDICRLKKLKCSKEKPKCAKCLKNNWECRYSPKTKRSPLTRAHLTEVESRLERLEQLFLLIFPREDLDMILKMDSLQDIKALLTGLFVQDNVNKDAVTDRLASVETDMPLTLRQHRISATSSSEESSNKGQRQLTVSHQKRTAMFQDPQERPRKLPQLCTELQTTIHDIILECVYCKQQLLRREVYDFAFRDLCIVYRDGNPYAVCDKCLKFYSKISEYRHYCYSLYGTTLEQQYNKPLCDLLIRCINCQKPLCPEEKQRHLDKKQRFHNIRGRWTGRCMSCCRSSRTRRETQL
notes: also called pGB9-E6

For test [1], the target named is T1, pGAD10 two-hybrid clone encoding the 476 carboxyl-terminal amino acids of E6-AP (human, UniProt Q05086 400-875).
T1 construct: domain: 476 carboxyl-terminal amino acids; also called one weakly positive clone
T1 sequence: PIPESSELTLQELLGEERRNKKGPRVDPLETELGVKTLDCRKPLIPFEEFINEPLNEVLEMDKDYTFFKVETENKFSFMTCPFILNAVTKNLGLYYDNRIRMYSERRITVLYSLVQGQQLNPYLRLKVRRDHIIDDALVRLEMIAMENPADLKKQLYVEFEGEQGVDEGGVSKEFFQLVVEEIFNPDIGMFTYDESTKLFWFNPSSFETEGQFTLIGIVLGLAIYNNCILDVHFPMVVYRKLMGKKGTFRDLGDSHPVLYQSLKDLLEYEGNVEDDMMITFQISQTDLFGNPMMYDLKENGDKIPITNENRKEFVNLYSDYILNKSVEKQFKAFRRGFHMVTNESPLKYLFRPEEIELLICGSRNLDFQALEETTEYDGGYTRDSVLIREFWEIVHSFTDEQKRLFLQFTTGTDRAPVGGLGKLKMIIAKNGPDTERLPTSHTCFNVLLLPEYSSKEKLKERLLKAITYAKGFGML
The test is described as follows: yeast two-hybrid, control bait.

The target of test [2] is B2. Briefly: yeast two-hybrid, control bait.
The target in test [3] is B6. The test is described as follows: yeast two-hybrid, control bait.
The target in test [4] is T2, GST (UniProt P08515 1-218 = GST).
T2 construct: Negative control; also called GST alone
T2 sequence (P08515 whole entry): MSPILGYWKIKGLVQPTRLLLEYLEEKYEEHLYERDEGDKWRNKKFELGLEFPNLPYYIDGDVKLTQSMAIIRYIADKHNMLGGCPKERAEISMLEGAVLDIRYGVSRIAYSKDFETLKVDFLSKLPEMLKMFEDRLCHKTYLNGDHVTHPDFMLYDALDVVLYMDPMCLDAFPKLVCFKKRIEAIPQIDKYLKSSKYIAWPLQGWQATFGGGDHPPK
The test is described as follows: GST pull-down of in vitro translated 35S-labelled E6.

The target of test [5] is B8. Briefly: yeast two-hybrid: growth on Trp-, Leu-, His- medium and beta-gal activity.
Test [6] has as its target B1. The test is described as follows: yeast two-hybrid, control bait.
For test [7], the target named is B2. Briefly: yeast two-hybrid: growth on Trp-, Leu-, His- medium and beta-gal activity.

With B1, the binding result in test [1] and in test [2] was “no binding” in each case. In the case of B2, the binding result in test [3] was “no binding”.

B3: HPV11 E6 protein (other)
chain: MESKDASTSATSIDQLCKTFNLSLHTLQIQCVFCRNALTTAEIYAYAYKNLKVVWRDNFPFAACACCLELQGKINQYRHFNYAAYAPTVEEETNEDILKVLIRCYLCHKPLCEIEKLKHILGKARFIKLNNQWKGRCLHCWTTCMEDLLP
Regarding B3, the binding result in test [4] was “no binding (tested: 1 µg GST fusion protein)”.

B4: HPV16 E6 protein (other)
chain: MFQDPQERPRKLPQLCTELQTTIHDIILECVYCKQQLLRREVYDFAFRDLCIVYRDGNPYAVCDKCLKFYSKISEYRHYCYSLYGTTLEQQYNKPLCDLLIRCINCQKPLCPEEKQRHLDKKQRFHNIRGRWTGRCMSCCRSSRTRRETQL
notes: also called high-risk HPV16 E6; wild-type E6
For the molecule B4, the binding result in test [4] is recorded as “no binding (tested: 1 µg GST fusion protein)”.

B5: HPV6 E6 protein (other)
chain: MESANASTSATTIDQLCKTFNLSMHTLQINCVFCKNALTTAEIYSYAYKHLKVLFRGGYPYAACACCLEFHGKINQYRHFDYAGYATTVEEETKQDILDVLIRCYLCHKPLCEVEKVKHILTKARFIKLNCTWKGRCLHCWTTCMEDMLP
notes: also called low-risk HPV6 E6
For B5, the binding result in test [4] is given as “no binding (tested: 1 µg GST fusion protein)”. With B6, the binding result in test [1] is given as “no binding”.

B7: pGAD10 two-hybrid clone encoding the 194 carboxyl terminal amino acid residues of E6TP1 (other)
chain: NDVLFSSTYPSLPKSLPLRRPSYTLGMKSLHGEFSASDSSLTDIQETRRQPMPDPGLMPLPDTAADLDWSNLVDAAKAYEVQRASFFAASDENHRPLSAASNSDQLEDQALAQMKPYSSSKDSSPTLASKVDQLEGMLKMLREDLKKEKEDKAHLQAEVQHLREDNLRLQEESQNASDKLKKFTEWVFNTIDMS
notes: also called set of eleven identical strongly positive clones
For the molecule B7, the binding result in test [5] is on record as “binds”; in test [6], “no binding”; in test [3], “no binding”. In the case of B8, the binding result in test [7] is recorded as “binds”.
